# From publication PMC4650826
# Several values for one entry are separate records, joined by “and”; a condition that tells them apart may be missing. Equal values may be shown once.
# Columns and labels:
# [1] = molecular target: Hcp1 (hemolysin-coregulated protein 1) of Burkholderia pseudomallei, recombinant wildtype (B. pseudomallei); assay: AUC
# [2] = molecular target: Hcp1 (hemolysin-coregulated protein 1) of Burkholderia pseudomallei, recombinant wildtype (B. pseudomallei); assay: dynamic light scattering; 8 mg/mL; apparent molecular weight in solution
substance,measurement,setting,value
"Hcp1 (hemolysin-coregulated protein 1) of Burkholderia pseudomallei, recombinant wildtype (natural protein)",stoichiometry N,[1],6 and 12
same,stoichiometry N,[2],12
